# From paper PMC3333882 (Nucleic Acids Research, 2011)
# B1: Gli2 (glioma-associated factor 2) (natural protein, mouse, UniProt Q0VGV1 1-1540, looked up)
# chain: METSAPAPALEKKEAKSGLLEDSSFPDPGKKACPLAVAAAVAAHGVPQQLLPAFHAPLPIDMRHQEGRYHYDPHSVHSVHGPPTLSGSPFISDISLIRLSPHPAGPGESPFSAHHPYVNPHMEHYLRSVHSSPTLSMISAARGLSPADVAHEHLKERGLFSLAAPGTNPSDYYHQMTLMASHPTPYGDLLMQSGGAASAPHLHDYLNPVDASRFSSPRVTPRLSRKRALSISPLSDASLDLQRMIRTSPNSLVAYINNSRSSSAASGSYGHLSAGALSPAFTFPHPINPVAYQQILSQQRGLGSAFGHTPPLIQPSPTFLAQQPMTLTSISTMPTQLSSSSSNCLNDANQNKQNSESAVSSTVNPITIHKRSKVKTEAEGLRPASPLGLTQEQLADLKEDLDRDDCKQEAEGVIYETNCHWADCTKEYDTQEQLVHHINNEHIHGEKKEFVCRWQACTREQKPFKAQYMLVVHMRRHTGEKPHKCTFEGCSKAYSRLENLKTHLRSHTGEKPYVCEHEGCNKAFSNASDRAKHQNRTHSNEKPYICKIPGCTKRYTDPSSLRKHVKTVHGPDAHVTKKQRNDVHVRAPLLKENGDNEASAEPGGRGPEESVEASSTSHTVEDCLHIKAIKTESSGLCQSSPGAQSSCSSEPSPLGSAPNNDSGMEMPGTGPGSLGDLTALADTCPGADTSALAAPSTGGLQLRKHMSTVHRFEQLKREKLKSLKDSCSWAGPAPHTRNTKLPPLPVNGSVLENFNNTGGGGPAGLLPSQRLPELTEVTMLSQLQERRDSSTSTMSSAYTVSRRSSGISPYFSSRRSSEASPLGGLRPHNASSADSYDPISTDASRRSSEASQCSGGGPGLLNLTPAQQYNLRAKYAAATGGPPPTPLPGLDRVSLRTRLALLDAPERALPGACPHPLGPRRGSDGPTYSHGHGHGYAGAAPAFPHEGPNSSTRRASDPVRRPDPLILPRVQRFHSTHNMNPGSLPPCADRRGLHVQSHPSVDSNLTRNAYSPRPPSINENVVMEAVAAGVDGPGLECDLGLVEDELVLPDDVVQYIKAHTGGTLDDGIRQGYPTEGTGFPENSKLPSPGLQGHRRLAAADSNMGPSAPGLGGCQLSYSPSSNLNKSNMPVQWNEVSSGTVDALPTQVKPPPFPHSNLAVVQQKPAFGQYPGYNPQSVQSSSGGLDSTQPHLQLRGAPSASRGSYTQQPRQPAAGSQCLGMSAAMSPQASYSQAHPQLSPNIVSGSLNQFSPSCSNMAAKPSHLGLPQQMEVVPNATIMNGHQREHGVPNSSLAAVSQPHPVLSYPQQDSYQQGSNLLSSHQPGFMESQQNAGFGLMQPRPPLEPNTASRHRGVRSGQQQLYARTTGQAMVTSANQETAEAMPKGPAGTMVSLAPQPSQDTGRAQDQNTLYYYGQIHMYEQNGGCPAVQPQPPQPQACSDSIQPEPLPSPGVNQVSSTVDSQLLEPPQIDFDAIMDDGDHSSLFSGALSPTLLHNLSQNSSRLTTPRNSLTLPSIPAGISNMAVGDMSSMLTSLAEESKFF
# Molecular target: MEF2C-Flag (myocyte enhancer factor 2C with Flag tag) (UniProt Q8CFN5 1-474)
# Sequence (Q8CFN5 whole entry): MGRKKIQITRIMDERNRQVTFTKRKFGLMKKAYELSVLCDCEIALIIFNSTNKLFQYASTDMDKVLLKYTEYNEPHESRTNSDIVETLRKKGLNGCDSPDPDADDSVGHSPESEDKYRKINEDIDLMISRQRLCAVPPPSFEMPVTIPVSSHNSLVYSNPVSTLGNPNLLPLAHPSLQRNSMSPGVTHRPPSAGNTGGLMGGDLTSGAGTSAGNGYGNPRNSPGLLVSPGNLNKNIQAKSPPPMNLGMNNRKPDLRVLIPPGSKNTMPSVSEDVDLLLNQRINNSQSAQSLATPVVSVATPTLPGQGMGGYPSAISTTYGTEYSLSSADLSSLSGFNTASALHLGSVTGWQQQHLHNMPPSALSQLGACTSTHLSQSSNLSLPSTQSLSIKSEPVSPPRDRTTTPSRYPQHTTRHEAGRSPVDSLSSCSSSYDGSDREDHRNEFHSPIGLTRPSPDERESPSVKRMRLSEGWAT
# Assay: co-IP
binder,measurement,value
B1,fold amount co-immunoprecipitated against the Flag-vector control,4 fold
